# Laboratory results published in patent publication US20240092925A1 (NANJING IASO BIOTECHNOLOGY, published 2024).
# T1: Recombinant biotinylated Human CD19 Protein-Fc (Kactus, CD2-HE121) (human, UniProt P15391 20-291, biotinylated (site not stated))
# T1 construct: bought; also called CD19-Fc-Bio; Kactus-CD19-FC-Bio; not shown: Fc tag
# T1 sequence (looked up): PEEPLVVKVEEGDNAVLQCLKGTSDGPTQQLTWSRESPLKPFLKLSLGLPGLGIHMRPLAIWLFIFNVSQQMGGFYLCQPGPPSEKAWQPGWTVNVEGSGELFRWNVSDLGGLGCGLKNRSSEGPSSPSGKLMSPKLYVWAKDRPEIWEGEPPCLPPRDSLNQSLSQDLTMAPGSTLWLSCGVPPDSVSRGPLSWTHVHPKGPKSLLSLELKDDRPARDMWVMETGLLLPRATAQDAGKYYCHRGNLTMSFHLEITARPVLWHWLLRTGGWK
# B1: phage monoclonal clone #42 (single-domain antibody) (VHH)
# VHH: EVQLLESGGGLVQPGGSLRLSCAASGFTFSHSAMGWVRQAPGKGLEWVSSIYARGGYTYYADSVKGRFTISRDNSKNTLYLQMNSLRAEDTAVYYCARGYHLEYMVSQDVWGQGTLVTVSS
# B2: phage monoclonal clone #60 (single-domain antibody) (VHH)
# VHH: QVQLVESGGGLVQPGGSLRLSCAASGFTFSSYEMNWVRQAPGKGLEWVSYISSSGSTIYYADSVKGRFTISRDNAKNSLYLQMNSLRAEDTAVYYCARVAQREGDVWGKGTTVTVSS
# B3: phage monoclonal clone #62 (single-domain antibody) (VHH)
# VHH: QVQLVQSGAEVKKPGESLRISCKASGYSFSNHWIGWVRQKPGKGLEWMGSVYPGDSDTRYSPSFQGHVTVSADKSMNTAYLQWSSLKTSDTAMYYCARGGTIDGDYGGRQDFWGQGTMVTVSS
# B4: phage monoclonal clone #61 (single-domain antibody) (VHH)
# VHH: QVQLVQSGAEVKKPGSSVKVSCKASGGTFSNYAISWVRQAPGQGLEWMGWISAYNGDTKYAQRLQGRVTMTTDTSTSTAYMELRNLRSDDTAVYYCARYESMSGQDIWGQGTLVTVSS
# Target: T2, Streptavidin (Pierce, 21125) (UniProt P22629 37-163, limits assumed)
# T2 construct: coated on the ELISA plate; non-related antigen; also called SA
# Test: phage ELISA
# T2 sequence (P22629 37-163 limits assumed): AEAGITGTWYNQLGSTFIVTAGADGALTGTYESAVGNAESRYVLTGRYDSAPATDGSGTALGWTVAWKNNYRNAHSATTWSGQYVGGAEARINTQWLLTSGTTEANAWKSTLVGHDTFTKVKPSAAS
row,Binder,binding result
1,B1,no binding
2,B2,no binding
3,B3,no binding
4,B4,no binding

# Target: T1, Recombinant biotinylated Human CD19 …
# Test: phage ELISA
row,Binder,binding result
1,B1,no binding
2,B2,no binding
3,B3,no binding
4,B4,no binding

# Target: T3, Biotinylated Recombinant human BAFFR Protein (Kactus, BAF-HM40RB) (human, UniProt Q96RJ3 7-71, limits assumed, biotinylated (site not stated))
# T3 construct: bought; also called Kactus-BAFFR-his-Bio; not shown: his tag
# Test: phage ELISA
# T3 sequence (Q96RJ3 7-71 limits assumed): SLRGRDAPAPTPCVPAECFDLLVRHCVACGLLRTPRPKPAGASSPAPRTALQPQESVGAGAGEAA
row,Binder,binding result
1,B1,no binding
2,B2,no binding
3,B3,no binding
4,B4,no binding
